Experimental data published in patent publication US20250303000A1, “COMPOSITIONS AND METHODS FOR INDUCIBLE ALTERNATIVE SPLICING REGULATION OF GENE EXPRESSION” (THE CHILDREN'S HOSPITAL OF PHILADELPHIA, priority 2022, published 2025).

B1: miniXS3B: miniX^on cassette with optimized Kozak/ATG and cryptic splicing sites eliminated; SEQ ID NO: 1 (nucleic acid)
DNA: TTTAAACAAGCTTGGCAATCCGGTACTGTTGGTAAATTTCTCTACAACTTAACCTTACAGAGAGCCACTGGCTTCAGCTTTGCCTTTCTTGGTAACTTTTCTGGTAAGTTCTCTCGTTACCATCTTTTGAAATTTTAAGTGAATTAATACATATCTTGCTTAATCTCTTGTGCAAAAAATGTTTTCCATTTATGACAAAACAAAAATTGTGTGAAATTTCAAATATTGGATTAGGAAATACAAAGTTACTGAAAGTGAGGTACTAATGTTTATAAAATAAAAACTTTTTCTTGCCATTTGCAGATTAACATTTTTGAGTCAATCCAAGTGCCACCATGGAAAAAGTTCATGATTGTGTAGAGTAAGACATAATTTTGTTGAAATTTAACTCTGAATACTTAATGTGGTACTGAATACTTAATGTGGTACTGAGAAGCAGCCTAACTGACCACACAACATTCCACGCCTGGCTAATTTTTGTATTTTTAATAAAAACGGGGTTTCACCATGGTGGCCGGGCTGGTTCTGGTTGTTTATGATCTTTATTTTTTGGTGATCTAGGAACCAAACAACAAAAAATTGTTGTTTCCCGTGGGTCGGATCC
modifications: SF3B3.miniXS3B (m3B; miniXS3B; XS3B)
B2: miniXS3B2: miniX^on cassette with optimized Kozak/ATG and cryptic splicing sites eliminated; SEQ ID NO: 2 (nucleic acid)
DNA: GTTTAAACAAGCTTGGCAATCCGGTACTGTTGGTAAATTTCTCTACAACTTAACCTTACAGAGAGCCACTGGCTTCAGCTTTGCCTTTCTTGGTAACTTTTCTGGTAAGTTCTCTCGTTACCATCTTTTGAAATTTTAAATGAATTAATACATATCTTGCTTAATCTCTTGTGCAAAAAATGTTTTCCATTTATGACAAAACAAAAATTGTGTGAAATTTCAAATATTGGATTAAAAAATACAAAGTTACGGAAAATGAGGTACTAATGTTTATAAAATAAAAACTTTTTCTTGCCATTTGCAGATTAACATTTTTGAGTCAATCCAAGTGCCACCATGGAAAAAGTTCATGATTGTGTAGAGTAAGACATAATTTTGTTGAAATTTAACTCTGAATACTTAATGTGGTACTGAATACTTAATGTGGTACTGAGAAGCAGCCTAACTGACCACACAACATTCCACGCCTGGCTAATTTTTGTATTTTTAATAAAAACGGGGTTTCACCATGGTGGCCGGGCTGGTTCTGGTTGTTTATGATCTTTATTTTTTGGTGATCTAGGAACCAAACAACAAAAAATTGTTGTTTCCCGTGGGTCGGATCC
modifications: SF3B3.miniXS3B2 (m3B2; miniXS3B2; XS3B2)

Assays:
loxP-STOP cassette = assay: In vivo gene editing in liver of Ai14 mice (FACS, histology, genomic DNA PCR, Sanger sequencing); conditions: LMI070 50 mg kg-1, 7 days after LMI070
Source text: FIGS. 1A-1H. Generation of the miniXon cassette and assessment of miniXon control of SaCas9 for in vivo gene editing in liver. a, Cartoon depicting the AAV genome size with the SF3B3-Xon and SF3B3-miniXon cassettes. b, Luciferase induction in HEK293 cells transfected with SF3B3-miniXon-luciferase or SF3B3-Xon-luciferase in response to varying doses of LMI070. All samples are normalized to Renilla luciferase activity and are relative to DMSO treated cells. Data are the mean±s.e.m. of 8 biological replicates (***P<0.001 versus SF3B3.Xon, two-way ANOVA followed by Bonferroni's post hoc test). c, Splicing inclusion assays of the LMI070-induced exon at 100 nM LMI070. Pseudo exon inclusion in the Xon cassette was detected using primers flanking the pseudoexon (left) or by priming within the novel exon sequence (right; 4 technical replicates). d, Experimental design. […]
The inventors have previously developed switch-on cassettes from LMI070-responsive exons, including from the minimal intronic intervening sequences necessary to recapitulate splicing of pseudoexons in SF3B3 (SF3B3.X^on; X^on). […] AAV8-miniX^on-SaCas9 plus single-guide RNAs targeting the loxP-STOP sequence in Ai14 mice were administered intravenously; after several weeks, LMI070 was administered and gene editing was assessed 7 days later (FIG. 1D). […]

luciferase = assay: Luciferase induction in HEK293 cells transfected with switch cassette-luciferase and treated with LMI070; format: cell-based, human; conditions: varying doses of LMI070, 24 h
Source text: FIGS. 1A-1H. Generation of the miniXon cassette and assessment of miniXon control of SaCas9 for in vivo gene editing in liver. a, Cartoon depicting the AAV genome size with the SF3B3-Xon and SF3B3-miniXon cassettes. b, Luciferase induction in HEK293 cells transfected with SF3B3-miniXon-luciferase or SF3B3-Xon-luciferase in response to varying doses of LMI070. All samples are normalized to Renilla luciferase activity and are relative to DMSO treated cells. Data are the mean±s.e.m. of 8 biological replicates (***P<0.001 versus SF3B3.Xon, two-way ANOVA followed by Bonferroni's post hoc test). c, Splicing inclusion assays of the LMI070-induced exon at 100 nM LMI070. Pseudo exon inclusion in the Xon cassette was detected using primers flanking the pseudoexon (left) or by priming within the novel exon sequence (right; 4 technical replicates). d, Experimental design. Mice were injected with AAV8-miniXon-SaCas9 plus AAV8-sgAi14-eGFP (1×10^12 viral genomes, 1:1 ratio) and 2 weeks later dosed with vehicle or LMI070 at 50 mg kg-1 to induce SaCas9 expression and editing of the loxP-STOP cassette (guides: sgA14_1: 5′-[…]-3′, sgAi14_2: 5′-[…]-3′). One week later, mice were euthanized, and livers processed to assess gene editing by genomic DNA PCR, histology and FACS of isolated hepatocytes. e, Representative FACS analysis of hepatocytes obtained from Ai14 mice after LMI070 or vehicle treatment. The gating/sorting strategy (above), and the percentage of tdTomato expressing cells for each condition (below) is shown (4 biological replicates). f, Representative photomicrographs of liver sections obtained from AAV injected Ai14 mice 1-week after LMI070 treatment. tdTomato expression (red) is evident in LMI070 treated mice (5 mice per group; scale bars, 100 μm). g, SaCas9 mediated editing of the loxP-STOP cassette in Ai14 mice as detected by PCR assay of liver genomic DNA (3 of 5 mice with guides plus LMI, 2 of 4 mice with guides plus vehicle, 1 of 2 untreated mice are shown). […] The sequence shown is represented in SEQ ID NO: 29.
FIG. 2. Comparison of the miniX^on, SF3B3.miniXS3B (miniXS3B), and SF3B3.miniXS3B2 (miniXS3B2) systems for luciferase induction. To increase expression and induction of the miniXon cassette in response to LMI070, the kozak sequence within the LMI070 induced translation initiation exon was optimized, and splice sites located within the upstream and downstream intron eliminated. […]
To test these switches, the cassettes were cloned upstream of luciferase or cDNA. HEK293 cells were transfected with the candidate cassettes, treated with LMI070, and luciferase activity expression determined 24 h later.

SaCas9 = SaCas9 protein levels by western blot in HEK293 cells treated with DMSO or LMI070; format: cell-based, human; conditions: for SaCas9 protein level, DMSO treated cells / SaCas9 protein induction after LMI070 treatment: 24 h; for SaCas9 protein levels relative to SF3B3.miniXon cassette / SaCas9 protein induction after LMI070 treatment: LMI070 (100 nM)
Procedure: FIG. 3. Comparison of the miniX^on (miX^on), SF3B3.miniXS3B (m3B), and SF3B3.miniXS3B2 (m3B2) systems for HD editing control. (top) Cartoon depicting X^on splicing system for controlling Cas9 protein translation in response to LMI070. (middle, bottom) Bicistronic plasmids containing Xon.SaCas9 or miniXon.SaCas9 expression cassette together with a CMVeGFP expression cassettes were transfected in HEK293 cells and treated with DMSO (middle) or LMI070 (100 nM) (bottom) and Cas9 protein levels were determined by western blot 24 h later. eGFP proteins served as transfection control. Western blot is representative of 4 biological replicates.
While gene editing approaches provide an enormous opportunity for altering or removing disease alleles, prolonged expression of the editing machinery from viral vectors could be problematic. The editing enzymes are foreign proteins and may induce immune responses, and prolonged gene expression would increase opportunities for off-target editing (Charlesworth et al., 2019; Vakulskas et al., 2018). To test the efficacy of SF3B3.miXS3B and SF3B3.miXS3B2 to control translation of CRISPR effector proteins, SF3B3.miXS3B and SF3B3.miXS3B2-SaCas9-CRISPR expression cassettes were generated and SaCas9 protein levels were quantified in response to DMSO or LMI070 treatment in HEK293 cells (FIG. 3A).

Molecule	Editing of the loxP-STOP cassette (genomic DNA PCR, 355 bp product, Sanger sequencing) (loxP-STOP cassette; Ai14 mice liver)	tdTomato expression in hepatocytes / liver sections (loxP-STOP cassette; Ai14 mice, AAV8-miniXon-SaCas9 plus AAV8-sgAi14-eGFP i.v.)	Luciferase induction relative to X^on and miniX^on (luciferase)	Protein levels (luciferase) relative to SF3B3.miniX^on cassette (luciferase)	SaCas9 protein level, DMSO treated cells (SaCas9)	SaCas9 protein levels relative to SF3B3.miniXon cassette (SaCas9)	SaCas9 protein induction after LMI070 treatment (SaCas9)
CC1(C)CC(Oc2ccc(-c3ccc(-c4cn[nH]c4)cc3O)nn2)CC(C)(C)N1 [LMI070, 5-(1H-Pyrazol-4-yl)-2-(6-((2,2,6,6-tetramethylpiperidin-4-yl)oxy)pyridazin-3-yl) phenol]	observed	evident	–	–	–	–	–
B1	–	–	improved induction relative to X^on and miniX^on	higher protein levels relative to the previous SF3B3.miniX^on cassette	almost undetectable	higher	evident
B2	–	–	improved induction relative to X^on and miniX^on	higher protein levels relative to the previous SF3B3.miniX^on cassette	almost undetectable	higher	evident
